The results in this text go back to article PMC10177866, “Computational Insights and In Silico Characterization of a Novel Mini-Lipoxygenase from Nostoc Sphaeroides and Its Application in the Quality Improvement of Steamed Bread” (International Journal of Molecular Sciences, 2023).

Series [1] concerns the target T1, NsLOX (Nostoc sphaeroides, UniProt A0A5P8W1C8).
T1 construct: gene GXM_03308; full length, 455 residues (52 kDa) plus 2 kDa His tag from pET-28a(+) NdeI/XhoI, tag kept; codon-optimised synthetic gene; E. coli BL21(DE3); Ni-NTA; about 54 kDa; C-terminal Ile455; no N-terminal PLAT domain
T1 sequence (A0A5P8W1C8 1-455): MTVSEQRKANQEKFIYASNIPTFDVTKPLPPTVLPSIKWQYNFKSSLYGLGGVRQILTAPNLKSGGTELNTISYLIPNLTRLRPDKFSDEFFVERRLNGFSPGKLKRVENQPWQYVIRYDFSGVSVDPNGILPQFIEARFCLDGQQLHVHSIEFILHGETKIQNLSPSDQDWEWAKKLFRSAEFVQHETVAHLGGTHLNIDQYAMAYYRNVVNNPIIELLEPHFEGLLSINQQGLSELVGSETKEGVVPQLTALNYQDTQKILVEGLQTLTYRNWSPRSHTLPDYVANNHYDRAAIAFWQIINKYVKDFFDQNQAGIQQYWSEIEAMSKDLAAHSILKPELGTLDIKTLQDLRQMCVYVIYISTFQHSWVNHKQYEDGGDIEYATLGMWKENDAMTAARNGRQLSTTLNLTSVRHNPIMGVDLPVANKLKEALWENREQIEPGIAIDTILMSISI
The series is described as follows: absorbance at […] nm, Lineweaver-Burk. To be noted: optimum assay conditions: 20 mM Tris-HCl pH 8.0, 15 °C, substrate 20-100 μM. The format is biochemical.

Substrate in series [2]: CCCCC/C=C\C/C=C\C/C=C\C/C=C\CCCC(=O)O
The series is described as follows: purified protein. The format is biochemical, Nostoc sphaeroides. To be noted: optimum assay conditions: 20 mM Tris-HCl pH 8.0, 15 °C, substrate 20-100 μM.

A word on the Km: it is the concentration of substrate that gives half-maximal velocity. What is called Vmax is the top rate of the reaction or transport when substrate is in excess. Usually kcat stands for the number of substrate molecules converted per active site and unit of time at saturation. The term kcat/Km denotes the turnover number divided by the Michaelis constant.

In the case of `CCCCC/C=C\C/C=C\CCCCCCCC(=O)O` [LA, Linoleic acid], in series [1], the Km was 19.5 ± 1.24 µM.

As to `CC/C=C\C/C=C\C/C=C\CCCCCCCC(=O)O` [ALA, α-Linolenic acid], in series [1] (Km above tested substrate range), the Km turned out to be 151 ± 6.39 µM.

B1: NsLOX (Nostoc sphaeroides CCNUC1) (protein)
chain: MTVSEQRKANQEKFIYASNIPTFDVTKPLPPTVLPSIKWQYNFKSSLYGLGGVRQILTAPNLKSGGTELNTISYLIPNLTRLRPDKFSDEFFVERRLNGFSPGKLKRVENQPWQYVIRYDFSGVSVDPNGILPQFIEARFCLDGQQLHVHSIEFILHGETKIQNLSPSDQDWEWAKKLFRSAEFVQHETVAHLGGTHLNIDQYAMAYYRNVVNNPIIELLEPHFEGLLSINQQGLSELVGSETKEGVVPQLTALNYQDTQKILVEGLQTLTYRNWSPRSHTLPDYVANNHYDRAAIAFWQIINKYVKDFFDQNQAGIQQYWSEIEAMSKDLAAHSILKPELGTLDIKTLQDLRQMCVYVIYISTFQHSWVNHKQYEDGGDIEYATLGMWKENDAMTAARNGRQLSTTLNLTSVRHNPIMGVDLPVANKLKEALWENREQIEPGIAIDTILMSISI
notes: full length, 455 residues (52 kDa) plus 2 kDa His tag from pET-28a(+) NdeI/XhoI, tag kept; codon-optimised synthetic gene; E. coli BL21(DE3); Ni-NTA; about 54 kDa; C-terminal Ile455; no N-terminal PLAT domain
Regarding B1, in series [2], the Km was found to be 571.22 ± 26.88 µM, the Vmax came to 30.6 µM/min, the kcat was determined as 7300 ± 145 s⁻¹ and the kcat/Km was found to be 1.28e+07 M⁻¹ s⁻¹.
